“And” between values parts separate entries of the source, which are not always exact repeats. Equal values may be shown once.
Molecular target: T1, human NPRA (human, UniProt P16066 33-1061)
T1 sequence (looked up): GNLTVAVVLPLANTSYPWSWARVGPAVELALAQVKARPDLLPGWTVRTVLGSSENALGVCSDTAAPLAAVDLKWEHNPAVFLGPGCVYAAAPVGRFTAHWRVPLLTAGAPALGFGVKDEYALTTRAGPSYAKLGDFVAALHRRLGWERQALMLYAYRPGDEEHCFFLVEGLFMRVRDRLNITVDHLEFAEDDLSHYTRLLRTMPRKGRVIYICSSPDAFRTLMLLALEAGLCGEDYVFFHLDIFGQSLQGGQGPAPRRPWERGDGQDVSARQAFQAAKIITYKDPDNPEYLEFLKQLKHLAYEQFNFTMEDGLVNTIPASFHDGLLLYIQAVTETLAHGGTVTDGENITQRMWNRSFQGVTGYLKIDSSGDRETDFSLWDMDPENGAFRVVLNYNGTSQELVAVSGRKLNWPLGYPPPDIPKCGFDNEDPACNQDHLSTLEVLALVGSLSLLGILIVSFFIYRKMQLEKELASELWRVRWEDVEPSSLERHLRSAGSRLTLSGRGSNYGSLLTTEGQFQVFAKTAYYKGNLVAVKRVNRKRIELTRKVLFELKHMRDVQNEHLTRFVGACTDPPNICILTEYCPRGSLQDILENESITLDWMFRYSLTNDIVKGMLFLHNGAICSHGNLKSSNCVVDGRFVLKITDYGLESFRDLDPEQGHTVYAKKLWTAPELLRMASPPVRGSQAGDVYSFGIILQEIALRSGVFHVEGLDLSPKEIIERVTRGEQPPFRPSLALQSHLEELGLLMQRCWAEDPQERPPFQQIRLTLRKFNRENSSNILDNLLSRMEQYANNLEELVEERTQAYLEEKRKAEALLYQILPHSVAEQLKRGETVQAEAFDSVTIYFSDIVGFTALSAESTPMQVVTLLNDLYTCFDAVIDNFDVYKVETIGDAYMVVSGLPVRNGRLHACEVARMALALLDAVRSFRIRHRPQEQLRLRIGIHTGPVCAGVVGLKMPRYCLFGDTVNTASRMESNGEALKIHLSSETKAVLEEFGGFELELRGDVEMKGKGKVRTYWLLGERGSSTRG
Assay: cell-based or functional assay

Binder	activity rcs [%]	average rel logEC50 [log vs TPP-5661]	rel. logEC50* pcs	rel. logEC50 pcs 4 [log vs TPP-5661]	rel. logEC50 pcs 7 [log vs TPP-5661]	rel. activity rcs [log vs TPP-5661]	rel. logEC50 pcs 1 [log vs TPP-5661]	rel. logEC50 pcs 2 [log vs TPP-5661]	rel. logEC50 pcs 5 [log vs TPP-5661]	rel. logEC50 pcs 6 [log vs TPP-5661]
TPP-10294 (antibody, human IgG1, lambda) heavy: not shown light: QSVLTQPPSVSGAPGQRVTISCTGSSSNIGAGYDVHWYQQLPGTAPKLLIYGNSNRPSGVPDRFSGSKSGTSASLAITGLQAEDEADYYCQSYDSSLSGVVFGGGTKLTVLGQPKAAPSVTLFPPSSEELQANKATLVCLISDFYPGAVTVAWKADSSPVKAGVETTTPSKQSNNKYAASSYLSLTPEQWKSHRSYSCQVTHEGSTVEKTVAPTECS	41	-0.3	-0.5 log vs TPP-5661 and -0.6 log vs TPP-5661 and -0.4 log vs TPP-5661	-0.2	0					
TPP-10282 (antibody, human IgG1, lambda) heavy: not shown light: QSVLTQPPSVSGAPGQRVTISCTGSSSNIGAGYDVHWYQQLPGTAPKLLIYGNSNRPSGVPDRFSGSKSGTSASLAITGLQAEDEADYYCQSYDSSLSGVVFGGGTKLTVLGQPKAAPSVTLFPPSSEELQANKATLVCLISDFYPGAVTVAWKADSSPVKAGVETTTPSKQSNNKYAASSYLSLTPEQWKSHRSYSCQVTHEGSTVEKTVAPTECS	30	0.1		0.1		0.3	0.3	-0.2	0.2	
TPP-10283 (antibody, human IgG1, lambda) heavy: not shown light: QSVLTQPPSVSGAPGQRVTISCTGSSSNIGAGYDVHWYQQLPGTAPKLLIYGNSNRPSGVPDRFSGSKSGTSASLAITGLQAEDEADYYCQSYDSSLSGVVFGGGTKLTVLGQPKAAPSVTLFPPSSEELQANKATLVCLISDFYPGAVTVAWKADSSPVKAGVETTTPSKQSNNKYAASSYLSLTPEQWKSHRSYSCQVTHEGSTVEKTVAPTECS	83	-0.8				-0.8			-0.8	
TPP-10845 (antibody, human IgG1, lambda) heavy: not shown light: QSVLTQPPSVSGAPGQRVTISCTGSSSNIGAGYDVHWYQQLPGTAPKLLIYGNSNRPSGVPDRFSGSKSGTSASLAITGLQAEDEADYYCQSYDSSLSGVVFGGGTKLTVLGQPKAAPSVTLFPPSSEELQANKATLVCLISDFYPGAVTVAWKADSSPVKAGVETTTPSKQSNNKYAASSYLSLTPEQWKSHRSYSCQVTHEGSTVEKTVAPTECS	67	-0.6							-0.4	-0.8
TPP-13061 (antibody, human IgG1, lambda) heavy: not shown light: QSVLTQPPSVSGAPGQRVTISCTGSSSNIGAGYDVHWYQQLPGTAPKLLIYGNSNRPSGVPDRFSGSKSGTSASLAITGLQAEDEADYYCQSYDSSLSGVVFGGGTKLTVLGQPKAAPSVTLFPPSSEELQANKATLVCLISDFYPGAVTVAWKADSSPVKAGVETTTPSKQSNNKYAASSYLSLTPEQWKSHRSYSCQVTHEGSTVEKTVAPTECS		-0.7	-0.6 log vs TPP-5661 and -0.8 log vs TPP-5661							
TPP-10765 (antibody, human IgG1, lambda) heavy: not shown light: QSVLTQPPSVSGAPGQRVTISCTGSSSNIGAGYDVHWYQQLPGTAPKLLIYGNSNRPSGVPDRFSGSKSGTSASLAITGLQAEDEADYYCQSYDSSLSGVVFGGGTKLTVLGQPKAAPSVTLFPPSSEELQANKATLVCLISDFYPGAVTVAWKADSSPVKAGVETTTPSKQSNNKYAASSYLSLTPEQWKSHRSYSCQVTHEGSTVEKTVAPTECS	72	-0.4			0.2	-0.9			-0.9	-0.4
TPP-10847 (antibody, human IgG1, lambda) heavy: not shown light: QSVLTQPPSVSGAPGQRVTISCTGSSSNIGAGYDVHWYQQLPGTAPKLLIYGNSNRPSGVPDRFSGSKSGTSASLAITGLQAEDEADYYCQSYDSSLSGVVFGGGTKLTVLGQPKAAPSVTLFPPSSEELQANKATLVCLISDFYPGAVTVAWKADSSPVKAGVETTTPSKQSNNKYAASSYLSLTPEQWKSHRSYSCQVTHEGSTVEKTVAPTECS		-0.5							0	-0.9
